Results from patent publication US20240218339.

Columns and labels:
[1] = system: T1, MG29-1 (uncultivated microorganism (metagenomic)); assay: cell_activity
T1 sequence: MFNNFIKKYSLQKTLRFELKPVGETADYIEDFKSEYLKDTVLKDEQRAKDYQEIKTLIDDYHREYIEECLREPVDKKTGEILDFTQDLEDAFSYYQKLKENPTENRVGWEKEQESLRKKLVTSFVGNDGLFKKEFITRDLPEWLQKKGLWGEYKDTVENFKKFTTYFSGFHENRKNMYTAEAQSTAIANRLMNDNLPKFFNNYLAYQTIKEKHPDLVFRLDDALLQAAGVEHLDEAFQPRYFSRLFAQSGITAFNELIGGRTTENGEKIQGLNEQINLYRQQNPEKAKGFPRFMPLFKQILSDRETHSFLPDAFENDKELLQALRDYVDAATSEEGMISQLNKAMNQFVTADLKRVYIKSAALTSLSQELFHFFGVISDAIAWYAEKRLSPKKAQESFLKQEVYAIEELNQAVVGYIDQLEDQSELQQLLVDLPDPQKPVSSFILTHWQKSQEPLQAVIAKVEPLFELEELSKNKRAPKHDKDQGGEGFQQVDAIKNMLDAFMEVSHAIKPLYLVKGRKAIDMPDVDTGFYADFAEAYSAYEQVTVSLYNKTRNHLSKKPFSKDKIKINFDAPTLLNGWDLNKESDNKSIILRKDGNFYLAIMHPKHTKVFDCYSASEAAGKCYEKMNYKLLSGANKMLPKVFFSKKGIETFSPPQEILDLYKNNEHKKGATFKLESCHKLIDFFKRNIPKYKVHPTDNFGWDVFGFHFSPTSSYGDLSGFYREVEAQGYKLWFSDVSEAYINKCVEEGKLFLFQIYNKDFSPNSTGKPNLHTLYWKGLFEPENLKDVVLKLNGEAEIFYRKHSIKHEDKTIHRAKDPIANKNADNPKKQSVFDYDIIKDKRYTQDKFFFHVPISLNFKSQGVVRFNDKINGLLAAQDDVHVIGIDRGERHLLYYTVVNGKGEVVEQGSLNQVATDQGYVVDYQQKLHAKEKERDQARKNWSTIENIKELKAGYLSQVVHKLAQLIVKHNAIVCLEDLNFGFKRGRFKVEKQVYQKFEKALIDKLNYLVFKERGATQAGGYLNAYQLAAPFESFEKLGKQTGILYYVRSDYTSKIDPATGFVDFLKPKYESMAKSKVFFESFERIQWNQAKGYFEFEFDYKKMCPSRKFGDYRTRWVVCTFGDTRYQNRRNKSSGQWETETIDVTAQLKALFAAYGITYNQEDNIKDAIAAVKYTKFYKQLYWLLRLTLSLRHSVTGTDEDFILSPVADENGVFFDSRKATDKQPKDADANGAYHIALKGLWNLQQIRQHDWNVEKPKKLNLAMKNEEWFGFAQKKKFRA

[2] = system: T2, MG31-1 (uncultivated microorganism (metagenomic)); assay: cell_activity; details: HEK cells
T2 sequence: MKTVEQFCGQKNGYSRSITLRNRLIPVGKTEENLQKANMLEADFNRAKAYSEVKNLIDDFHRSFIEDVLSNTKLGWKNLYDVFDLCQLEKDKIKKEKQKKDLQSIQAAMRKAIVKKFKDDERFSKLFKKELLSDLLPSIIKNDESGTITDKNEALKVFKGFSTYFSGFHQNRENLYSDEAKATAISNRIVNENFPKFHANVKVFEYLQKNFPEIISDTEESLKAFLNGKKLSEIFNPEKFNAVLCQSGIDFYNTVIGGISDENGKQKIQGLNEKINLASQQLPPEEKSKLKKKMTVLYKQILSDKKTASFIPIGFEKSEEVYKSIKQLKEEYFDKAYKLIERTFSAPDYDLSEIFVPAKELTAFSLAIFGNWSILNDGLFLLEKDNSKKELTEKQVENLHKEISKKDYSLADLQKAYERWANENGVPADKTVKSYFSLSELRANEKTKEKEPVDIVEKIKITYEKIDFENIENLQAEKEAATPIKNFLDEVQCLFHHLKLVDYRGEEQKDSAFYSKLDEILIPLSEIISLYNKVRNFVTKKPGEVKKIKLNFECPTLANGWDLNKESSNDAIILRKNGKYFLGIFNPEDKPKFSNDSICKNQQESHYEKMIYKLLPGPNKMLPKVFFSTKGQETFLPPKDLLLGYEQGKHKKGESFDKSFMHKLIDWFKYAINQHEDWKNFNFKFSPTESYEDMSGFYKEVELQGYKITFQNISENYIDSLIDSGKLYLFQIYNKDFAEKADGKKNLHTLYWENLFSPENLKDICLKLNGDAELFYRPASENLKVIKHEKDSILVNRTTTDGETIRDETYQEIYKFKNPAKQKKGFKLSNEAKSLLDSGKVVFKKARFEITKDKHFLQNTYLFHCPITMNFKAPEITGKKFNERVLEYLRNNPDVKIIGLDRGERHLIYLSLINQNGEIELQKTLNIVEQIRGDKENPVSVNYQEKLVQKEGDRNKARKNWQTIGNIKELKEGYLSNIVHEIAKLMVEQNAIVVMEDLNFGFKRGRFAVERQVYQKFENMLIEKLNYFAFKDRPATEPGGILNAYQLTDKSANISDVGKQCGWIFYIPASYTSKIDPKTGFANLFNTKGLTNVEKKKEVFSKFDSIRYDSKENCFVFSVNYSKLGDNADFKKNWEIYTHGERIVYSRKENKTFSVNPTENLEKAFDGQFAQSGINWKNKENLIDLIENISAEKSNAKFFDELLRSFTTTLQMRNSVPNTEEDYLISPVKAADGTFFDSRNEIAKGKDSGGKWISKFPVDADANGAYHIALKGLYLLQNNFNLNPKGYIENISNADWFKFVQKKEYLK

Sequence “AAUUUCUACUAUUGUAGAUNCCGAUCGUUACAGGAAAAUCUG / GTTCCCGATCGTTACAGGAAAATCTG / CAGATTTTCCTGTAACGATCGGGAAC [mAlb29-1-2 sgRNA ; mouse albumin intron 1 mAlb29-1-2 site]” has an activity ([1]; PAM GTTC, Hepa1-6 RNP nucleofection, guide backbone inferred) of 0 % indel.

Work on “AAUUUCUACUAUUGUAGAUNGCCAGAGCCGGGGUGUGCAGACGG / TCCCTCTTTAGCCAGAGCCGGGGTGTGCAGACGG / CCGTCTGCACACCCCGGCTCTGGCTAAAGAGGGA [MG31-1 guide VEGFA target9 ; VEGFA target9]” yielded an activity ([2]; PAM YTTn (TTTA), SD 1.92) of 6.72 % NHEJ.

Sequence “AAUUUCUACUAUUGUAGAUNGAAAGGGGGUGGGGGGAGUUUGCU / ATGGGCTTTGGAAAGGGGGTGGGGGGAGTTTGCT / AGCAAACTCCCCCCACCCCCTTTCCAAAGCCCAT [MG29-1 guide VEGFA target8 ; VEGFA target8]” has an activity ([1]; PAM KTTG (TTTG), HEK293T plasmid transfection, SD 10.17) of 30.1 % NHEJ.

“AAUUUCUACUAUUGUAGAUNGGAGGUCAGAAAUAGGGGGUCCAG / TAGCTGTTTGGGAGGTCAGAAATAGGGGGTCCAG / CTGGACCCCCTATTTCTGACCTCCCAAACAGCTA [MG31-1 guide VEGFA target7 ; VEGFA target7]” showed an activity ([2]; PAM YTTn (TTTG), SD 8.67) of 17.4 % NHEJ.

“AAUUUCUACUAUUGUAGAUNCUUGGACCUUGUUUUGCUUACUGU / ACAAATTTTACTTGGACCTTGTTTTGCTTACTGT / ACAGTAAGCAAAACAAGGTCCAAGTAAAATTTGT” showed an activity ([2]; PAM TTTA, SD 0.75) of -0.32 % NHEJ.

Sequence “AAUUUCUACUAUUGUAGAUNUGUGAGGGAGCACCGUUCUCUAGA / TACATAGTTGTGTGAGGGAGCACCGTTCTCTAGA / TCTAGAGAACGGTGCTCCCTCACACAACTATGTA” has an activity ([1]; PAM KTTG (GTTG), HEK293T plasmid transfection, SD 1.57) of 30.4 % NHEJ.

“AAUUUCUACUAUUGUAGAUNCGCACUAAGGAAAGUGCAAAGU / TTTGCGCACTAAGGAAAGTGCAAAGT / ACTTTGCACTTTCCTTAGTGCGCAAA [hAlb_g87 sgRNA ; human albumin intron 1 g87 site]” was tested, and the activity ([1]; PAM TTTG, RNP nucleofection HepG2, guide backbone inferred) was 97 % indel.

“AAUUUCUACUAUUGUAGAUNUGAAGUCUUACAAGGUUAUCUUAU / TTTGTATTTGTGAAGTCTTACAAGGTTATCTTAT / ATAAGATAACCTTGTAAGACTTCACAAATACAAA [MG31-1 guide albumin target4 ; Albumin target4]” gave an activity ([2]; PAM YTTn (TTTG), SD 2.72) of 7.05 % NHEJ.
